Source: patent US20050123546A1 (Hoffmann-La Roche, published 2005)
Positions count from the first letter of the chain named.

T1: human CD20 (human, UniProt P11836 1-297)
T1 construct: whole, on cells; also called human CD20 antigen; Bp35
T1 sequence (looked up): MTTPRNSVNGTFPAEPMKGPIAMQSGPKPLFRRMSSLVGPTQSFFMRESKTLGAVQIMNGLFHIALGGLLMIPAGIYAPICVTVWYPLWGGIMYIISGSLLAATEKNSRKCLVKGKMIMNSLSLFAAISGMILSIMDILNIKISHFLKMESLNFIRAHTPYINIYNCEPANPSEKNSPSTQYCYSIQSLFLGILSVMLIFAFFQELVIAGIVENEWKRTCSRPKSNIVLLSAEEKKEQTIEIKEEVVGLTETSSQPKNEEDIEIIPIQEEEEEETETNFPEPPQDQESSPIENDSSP

B1: B-HH1 complexed with the humanized B-Ly1 light chain (KV1) (antibody, human IgG1, V domains shown)
VH: QVQLVQSGAEVKKPGSSVKVSCKASGYTFSYSWMSWVRQAPGQGLEWMGRIFPGDGDTDYAQKFQGRVTITADKSTSTAYMELSSLRSEDTAVYYCARNVFDGYWLVYWGQGTLVTVSS
VL: DIVMTQTPLSLPVTPGEPASISCRSSKSLLHSNGITYLYWYLQKPGQSPQLLIYQMSNLVSGVPDRFSGSGSGTDFTLKISRVEAEDVGVYYCAQNLELPYTFGGGTKVEIKR
notes: also called BHH1-KV1
B2: BHL11-KV1 (antibody, human IgG1, V domains shown)
VH: QVQLVESGGGLVKPGGSLRLSCAASGFTFSYSWMNWVRQAPGKGLEWVGRIFPGDGDTDYNGKFKGRVTITADKSTSTAYMELSSLRSEDTAVYYCARNVFDGYWLVYWGQGTLVTVSS
VL: B1 VL
notes: B-HL8 with the single mutation Glu1Gln
B3: B-HH1 (as compared in FIG. 12; light chain not stated) (antibody, V domains shown)
VH: B1 VH
VL: DIVMTQTPLSLPVTPGEPASISCRSSKSLLHSNGITYLYWYLQKPGQSPQLLIYQMSNLVSGVPDRFSGSGSGTDFTLKISRVEAEDVGVYYCAQNLELPYTFGGGTKVEIK
B4: BHL8-KV1 (antibody, human IgG1, V domains shown)
VH: B2 VH with Q1E
VL: B1 VL
B5: B-HH3 complexed with the humanized B-Ly1 light chain (KV1) (antibody, human IgG1, V domains shown)
VH: B1 VH with T28A, S35N, A61N, Q62G, Q65K, Y95L
VL: B1 VL
notes: also called BHH3-KV1
B6: BHH2-KV1 humanized IgG1 B-Ly1 anti-human CD20 antibody (non-glycoengineered) (antibody, V domains shown)
VH: B1 VH with T28A, S35N, A61N, Q62G, Q65K
VL: B1 VL
notes: also called BHH2-KV1-wt
B7: chimeric B-Ly1 antibody chB-Ly1 (antibody, V domains shown)
VH: EVKLQQSGPELVKPGASVKISCKASGYAFSYSWMNWVKLRPGQGLEWIGRIFPGDGDTDYNGKFKGKATLTADKSSNTAYMQLTSLTSVDSAVYLCARNVFDGYWLVYWGQGTLVTVSA
VL: DIVLTQTTNPVTLGTSASISCRSSKSLLHSNGITYLYWYLQKPGQSPQLLIYQMSNLVSGVPDRFSSSGSGTDFTLRISRVEAEDVGVYYCAQNLELPYTFGGGTKLEIKR
notes: also called parental antibody B-Ly1; copies: 2 + 2

Molecular target: T1, human CD20
Assay: flow cytometry on Raji cells
Description: 500.000 in 180 μl FACS buffer (PBS containing 2% FCS and 5 mM EDTA) were transferred to 5 ml polystyrene tubes and 20 ul 10 fold concentrated anti-CD20 antibody samples (1-5000 ng/ml final concentration) or PBS only were added and the tubes were incubated at 4° C. for 30 min. Subsequently, samples were washed twice with FACS buffer and pelleted at 300×g for 3 min. Supernatant was aspirated off and cells were taken up in 100 μl FACS buffer and 1 μl anti-Fc-specific F(ab′)₂—FITC fragments (Jackson Immuno Research Laboratories, USA) was added and the tubes were incubated at 4° C. for 30 min. Samples were washed twice with FACS buffer and taken up in 500 μl of FACS buffer containing 0.5 μg/ml PI for analysis by Flow Cytometry. Binding was determined by plotting the geometric mean fluorescence against the antibody concentrations.

Binder	binding result	binding intensity/stoichiometry compared to B-Ly1
B1	binds	
B2	binds	
B3		~0.5 fold of chB-Ly1
B4	binds	
B5	binds	
B6	binds	
B7	binds	
